Consider three variants from IntAct's records for PubMed 19765080.

First the molecules themselves.
B1: G protein-activated inward rectifier potassium channel 1 (Rattus norvegicus (Rat)), P63251 (parent)
chain: MSALRRKFGDDYQVVTTSSSGSGLQPQGPGQGPQQQLVPKKKRQRFVDKNGRCNVQHGNLGSETSRYLSDLFTTLVDLKWRWNLFIFILTYTVAWLFMASMWWVIAYTRGDLNKAHVGNYTPCVANVYNFPSAFLFFIETEATIGYGYRYITDKCPEGIILFLFQSILGSIVDAFLIGCMFIKMSQPKKRAETLMFSEHAVISMRDGKLTLMFRVGNLRNSHMVSAQIRCKLLKSRQTPEGEFLPLDQLELDVGFSTGADQLFLVSPLTICHVIDAKSPFYDLSQRSMQTEQFEVVVILEGIVETTGMTCQARTSYTEDEVLWGHRFFPVISLEEGFFKVDYSQFHATFEVPTPPYSVKEQEEMLLMSSPLIAPAITNSKERHNSVECLDGLDDISTKLPSKLQKITGREDFPKKLLRMSSTTSEKAYSLGDLPMKLQRISSVPGNSEEKLVSKTTKMLSDPMSQSVADLPPKLQKMAGGPTRMEGNLPAKLRKMNSDRFT

Common to all, as to details: with kapca_bovin PRKACA
In assay [1] the parent is B1.
Variants of B1 are the subject of assay [2]. The source holds these as a separate data set.
Variants of B1 are the subject of assay [3]. This is another data set of the same source.
Assay [4] covers variants of B1. This is another data set of the same source.
Variants of B1 are the subject of assay [5]. The source holds these as a separate data set.

Turning to S401C, the “effect of a mutation on the interaction” value is listed as “decreasing interaction” in assay [1] and “disrupting interaction” in assay [2].
With S385C, the “effect of a mutation on the interaction” value is listed as “disrupting interaction” in assay [3] and “decreasing interaction” in assay [4].
T407C: the “effect of a mutation on the interaction” value is “decreasing interaction” in assay [5] and “disrupting interaction” in assay [2].
